Laboratory results taken from article PMC11347159, “MUT-7 exoribonuclease activity and localization are mediated by an ancient domain” (Nucleic Acids Research, 2023).
Blank lines part the entries; values can stand above or below the binder they belong to.

Columns and labels:
[1] = target: T1, MUT-7^FL/MUT-8^FL complex (Caenorhabditis elegans, UniProt P34607 1-910; Q19672 1-578); assay: pull-down; purified proteins (5 μM) pre-incubated 30 min at 4°C in 20 mM HEPES/NaOH pH 7.5, 150 mM NaCl, 10% glycerol, 0.05% IGEPAL, 2 mM DTT; GST-tagged MUT-16 constructs held on glutathione resin; SDS-PAGE, Coomassie; details: both partners purified
T1 construct: C. elegans exonuclease MUT-7, residues 1-910 (full length); C. elegans MUT-8 (RDE-2), residues 1-578 (full length); Complex formed beforehand by co-expression; also called full-length MUT-7/MUT-8; MUT-7/MUT-8; source: E. coli BL21(DE3) derivative, co-expressed, purified through several chromatographic steps
T1 sequence (looked up) 1: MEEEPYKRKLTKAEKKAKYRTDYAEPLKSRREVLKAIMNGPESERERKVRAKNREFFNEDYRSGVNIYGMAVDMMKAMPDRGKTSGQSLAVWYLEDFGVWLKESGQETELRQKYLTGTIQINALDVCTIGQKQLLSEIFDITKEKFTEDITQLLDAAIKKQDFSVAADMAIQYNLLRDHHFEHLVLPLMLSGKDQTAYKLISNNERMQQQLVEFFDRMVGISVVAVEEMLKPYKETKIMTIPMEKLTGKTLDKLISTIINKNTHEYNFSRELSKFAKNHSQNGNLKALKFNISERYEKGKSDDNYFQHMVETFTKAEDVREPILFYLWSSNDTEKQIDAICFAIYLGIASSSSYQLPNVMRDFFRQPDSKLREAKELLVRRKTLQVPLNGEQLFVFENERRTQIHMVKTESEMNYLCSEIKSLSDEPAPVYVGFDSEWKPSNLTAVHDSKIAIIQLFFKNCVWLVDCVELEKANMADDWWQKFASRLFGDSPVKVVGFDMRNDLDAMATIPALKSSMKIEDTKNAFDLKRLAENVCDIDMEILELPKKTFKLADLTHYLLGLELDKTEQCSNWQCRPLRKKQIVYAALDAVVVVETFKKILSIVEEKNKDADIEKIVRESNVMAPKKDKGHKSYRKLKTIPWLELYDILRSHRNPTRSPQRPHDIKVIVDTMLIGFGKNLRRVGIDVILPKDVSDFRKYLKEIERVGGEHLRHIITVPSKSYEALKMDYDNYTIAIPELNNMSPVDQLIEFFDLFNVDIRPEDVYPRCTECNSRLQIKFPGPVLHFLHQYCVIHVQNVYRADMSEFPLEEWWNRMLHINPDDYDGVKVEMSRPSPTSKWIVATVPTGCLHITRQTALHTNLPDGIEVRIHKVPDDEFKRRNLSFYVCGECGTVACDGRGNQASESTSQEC
T1 sequence (looked up) 2: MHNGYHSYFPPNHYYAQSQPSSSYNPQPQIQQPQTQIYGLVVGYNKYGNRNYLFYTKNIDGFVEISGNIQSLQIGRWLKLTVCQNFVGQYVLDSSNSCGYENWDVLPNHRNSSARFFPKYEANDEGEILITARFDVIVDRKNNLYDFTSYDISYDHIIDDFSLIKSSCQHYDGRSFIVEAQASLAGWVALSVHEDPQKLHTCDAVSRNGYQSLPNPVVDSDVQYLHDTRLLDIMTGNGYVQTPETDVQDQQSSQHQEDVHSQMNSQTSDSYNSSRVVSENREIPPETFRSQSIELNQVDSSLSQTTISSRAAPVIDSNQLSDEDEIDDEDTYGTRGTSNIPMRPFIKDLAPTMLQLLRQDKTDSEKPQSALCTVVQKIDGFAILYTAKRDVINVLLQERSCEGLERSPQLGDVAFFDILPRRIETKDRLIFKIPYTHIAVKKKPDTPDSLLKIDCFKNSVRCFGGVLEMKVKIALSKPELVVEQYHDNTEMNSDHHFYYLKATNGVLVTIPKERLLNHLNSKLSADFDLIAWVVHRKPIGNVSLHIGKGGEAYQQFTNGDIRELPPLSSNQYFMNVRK

[2] = target: T2, MUT-8^NTD (1–235), purified (Caenorhabditis elegans, UniProt Q19672 1-235); assay: ITC; isothermal titration calorimetry of MUT-8^NTD and MUT-16^584–724; details: both partners purified
T2 construct: C. elegans MUT-8 N-terminal domain, residues 1-235
T2 sequence (looked up): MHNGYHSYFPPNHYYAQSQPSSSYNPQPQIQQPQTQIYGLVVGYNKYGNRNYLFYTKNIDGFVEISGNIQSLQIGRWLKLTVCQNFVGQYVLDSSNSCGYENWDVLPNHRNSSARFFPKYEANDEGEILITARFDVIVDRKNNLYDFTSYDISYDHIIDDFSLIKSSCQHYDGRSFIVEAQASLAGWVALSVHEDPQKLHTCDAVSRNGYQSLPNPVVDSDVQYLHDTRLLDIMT

EXD3 NTD-EXO(D399A) = target: T3, EXD3 NTD-EXO(D399A) (Homo sapiens, UniProt Q8N9H8 1-582, D399A); assay: fluorescence polarization; 250 mM NaCl; Hill h 1.1; FP, 50 nM RNA, 30 min, room temperature; C. elegans proteins: 20 mM HEPES/NaOH pH 7.5, 150 mM NaCl, 10% glycerol, 5 mM EDTA; human proteins: 20 mM HEPES/NaOH pH 7.5, 250 mM NaCl; details: protein: recombinant; label: 5'-FAM; single strand
T3 sequence: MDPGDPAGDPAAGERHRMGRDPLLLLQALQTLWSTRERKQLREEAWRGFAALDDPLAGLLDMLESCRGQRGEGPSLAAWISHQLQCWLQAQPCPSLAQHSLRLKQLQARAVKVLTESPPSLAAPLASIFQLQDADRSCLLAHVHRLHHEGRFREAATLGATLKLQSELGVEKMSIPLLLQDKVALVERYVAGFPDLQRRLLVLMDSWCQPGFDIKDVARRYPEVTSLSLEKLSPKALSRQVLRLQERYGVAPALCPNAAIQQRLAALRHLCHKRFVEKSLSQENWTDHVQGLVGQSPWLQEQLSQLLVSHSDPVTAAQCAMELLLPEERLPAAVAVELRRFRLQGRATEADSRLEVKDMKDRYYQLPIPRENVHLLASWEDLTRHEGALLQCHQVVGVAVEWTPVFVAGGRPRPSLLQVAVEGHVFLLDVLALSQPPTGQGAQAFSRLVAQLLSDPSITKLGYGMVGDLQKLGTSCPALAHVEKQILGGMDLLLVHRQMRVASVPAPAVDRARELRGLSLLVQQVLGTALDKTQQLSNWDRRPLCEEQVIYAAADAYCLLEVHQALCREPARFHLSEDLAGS

EXD3 FL(D399A) = target: T4, EXD3 FL(D399A) (Homo sapiens, UniProt Q8N9H8 1-876, D399A); assay: fluorescence polarization; 250 mM NaCl; Hill h 1.029; FP, 50 nM RNA, 30 min, room temperature; C. elegans proteins: 20 mM HEPES/NaOH pH 7.5, 150 mM NaCl, 10% glycerol, 5 mM EDTA; human proteins: 20 mM HEPES/NaOH pH 7.5, 250 mM NaCl; details: protein: recombinant; label: 5'-FAM; single strand
T4 sequence: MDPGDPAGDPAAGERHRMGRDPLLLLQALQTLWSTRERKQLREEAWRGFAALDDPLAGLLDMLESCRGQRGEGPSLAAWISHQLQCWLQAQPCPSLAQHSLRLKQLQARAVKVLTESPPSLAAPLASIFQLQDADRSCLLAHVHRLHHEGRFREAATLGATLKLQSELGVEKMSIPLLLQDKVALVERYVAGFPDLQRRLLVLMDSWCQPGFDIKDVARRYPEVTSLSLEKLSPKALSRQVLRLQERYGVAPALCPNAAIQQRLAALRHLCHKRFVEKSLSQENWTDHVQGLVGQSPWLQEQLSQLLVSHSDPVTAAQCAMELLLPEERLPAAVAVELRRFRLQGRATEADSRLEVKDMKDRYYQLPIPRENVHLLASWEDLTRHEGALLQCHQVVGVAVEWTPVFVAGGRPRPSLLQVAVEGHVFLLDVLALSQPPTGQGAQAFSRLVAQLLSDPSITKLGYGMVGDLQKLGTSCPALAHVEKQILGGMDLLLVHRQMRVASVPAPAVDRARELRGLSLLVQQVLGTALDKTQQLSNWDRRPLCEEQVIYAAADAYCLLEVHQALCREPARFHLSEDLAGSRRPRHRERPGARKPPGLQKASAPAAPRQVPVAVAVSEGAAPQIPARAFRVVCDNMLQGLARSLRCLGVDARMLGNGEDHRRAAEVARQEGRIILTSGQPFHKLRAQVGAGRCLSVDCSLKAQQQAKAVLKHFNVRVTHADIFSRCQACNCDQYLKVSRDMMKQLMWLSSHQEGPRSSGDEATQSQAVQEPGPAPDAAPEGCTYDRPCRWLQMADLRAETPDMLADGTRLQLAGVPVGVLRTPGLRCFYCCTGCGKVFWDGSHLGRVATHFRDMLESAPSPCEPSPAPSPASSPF

MUT-7 FL = target: T5, MUT-7 FL (Caenorhabditis elegans, UniProt P34607 1-910); assay: fluorescence polarization; 5 mM EDTA, 150 mM NaCl; Hill h 1.195; FP, 50 nM RNA, 30 min, room temperature; C. elegans proteins: 20 mM HEPES/NaOH pH 7.5, 150 mM NaCl, 10% glycerol, 5 mM EDTA; human proteins: 20 mM HEPES/NaOH pH 7.5, 250 mM NaCl; details: protein: recombinant; tags: His10-MBP-3C (N), 3C cleavage in purification; label: 5'-FAM; single strand
T5 sequence: T1 sequence (looked up) 1

MUT-7 NTD-EXO = target: T6, MUT-7 NTD-EXO (Caenorhabditis elegans, UniProt P34607 1-625); assay: fluorescence polarization; 5 mM EDTA, 150 mM NaCl; Hill h 1.491; FP, 50 nM RNA, 30 min, room temperature; C. elegans proteins: 20 mM HEPES/NaOH pH 7.5, 150 mM NaCl, 10% glycerol, 5 mM EDTA; human proteins: 20 mM HEPES/NaOH pH 7.5, 250 mM NaCl; details: protein: recombinant; label: 5'-FAM; single strand
T6 sequence: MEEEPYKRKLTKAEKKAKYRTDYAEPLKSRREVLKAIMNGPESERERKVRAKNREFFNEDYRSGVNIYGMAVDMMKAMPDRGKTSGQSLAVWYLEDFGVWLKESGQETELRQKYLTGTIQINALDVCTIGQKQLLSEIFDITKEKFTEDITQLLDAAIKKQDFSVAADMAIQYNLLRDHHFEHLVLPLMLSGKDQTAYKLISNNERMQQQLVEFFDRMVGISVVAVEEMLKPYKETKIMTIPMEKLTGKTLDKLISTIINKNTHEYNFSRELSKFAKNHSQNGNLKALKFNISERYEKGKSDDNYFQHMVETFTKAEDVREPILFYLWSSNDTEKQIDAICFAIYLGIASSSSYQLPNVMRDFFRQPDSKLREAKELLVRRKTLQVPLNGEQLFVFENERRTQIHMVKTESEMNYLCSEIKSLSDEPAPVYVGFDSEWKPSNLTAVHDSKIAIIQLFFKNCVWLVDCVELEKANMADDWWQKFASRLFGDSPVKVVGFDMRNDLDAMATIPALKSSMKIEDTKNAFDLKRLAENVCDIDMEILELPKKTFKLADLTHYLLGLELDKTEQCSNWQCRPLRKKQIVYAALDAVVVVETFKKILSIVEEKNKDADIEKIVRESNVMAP

binding result [1]: binds
B1: GST-tagged MUT-16^584–724 (domain or fragment, Caenorhabditis elegans, UniProt O62011 584-724, looked up)
chain: KKKSESSATDTSNTPPVDTVNVALPTPVVESSSTTAAPSIPVSTRPEVVVPPENPAPLREVGNFYSKSNHDEDRRNVQLPFTPADTHKPIKVAPKEPVRNPLLKERPSANGFINRRLPSHPAPPPVNQSQPANQPMQTAVY
notes: numbers count on the longer isoform B0379.3a.1 (O62011); source: E. coli BL21(DE3) derivative, purified

Kd [2]: ~13 µM
B2: MUT-16^584–724 (domain or fragment, Caenorhabditis elegans, UniProt O62011 584-724, looked up)
chain: B1 chain
notes: numbers count on the longer isoform B0379.3a.1 (O62011); an untagged form was purified for CD; source: E. coli BL21(DE3) derivative; co-expressed with MBP-tagged MUT-8 constructs, in lysate; co-expressed with MUT-8^NTD and purified as complex; purified

binding result [1]: binds
B3: GST-tagged MUT-16^1–724 (domain or fragment, Caenorhabditis elegans, UniProt O62011 1-724, looked up)
chain: MSESDDDYPELDISDQYIDPLGIVVGPPPASYTETDREETPMQNRTEDDTNSYGNSSGEHDYDSYLDSGDDDFDVDAYYANDNMDEPPPETIPDNLIQNVIGRNDNADYDFSDASNPEIMKRDLQLFLSSSLLSNPLKFRSGYSSDELDDCLKSCMGYSLQVTAVLLLPPEIISQLPNDSKTEHAHALVRGGWLQSKEGAFFPVISDSERETVVSLMNGSEEQHKRQERKKKEADTFESEEKEIRTLLTFNMIAELLMAVRNEYSIRSVKYQILSTAYTNMVTGAAHANIFRKYKDILQLDPEKLWNNDWFKEYTNRGTLKKFLTTARFSEIVVSQANGKTVELYFRADDEGNRPVVLFTDEHIADVRNKWKTGNQRNQNYGSQGNYRAGGQRSDDRRGPQQRRNVIVPDPNYQPSTFAGGISNNADDDGSLQPTTSSHFNRNTDRSTSRPPRAPTSPVNRVMETDPLMGQGTSSGAPQRSAIPNPFGGAPALSRSTITNGNRGPSYGDRGERVQDVGDTTSDSEITSEGSYSDEDPEQKEIKRQRRKDKLKKKQERELRSREKHTKSKQQPPSKIETRFNTYKKKSESSATDTSNTPPVDTVNVALPTPVVESSSTTAAPSIPVSTRPEVVVPPENPAPLREVGNFYSKSNHDEDRRNVQLPFTPADTHKPIKVAPKEPVRNPLLKERPSANGFINRRLPSHPAPPPVNQSQPANQPMQTAVY
notes: numbers count on the longer isoform B0379.3a.1 (O62011); also called the longest MUT-16 construct; source: E. coli BL21(DE3) derivative, purified

Binder: GUUGAUUGAAGAGUUC (ssRNA) [16-mer ssRNA]
Kd (EXD3 NTD-EXO(D399A)): 11.2 µM | Kd (EXD3 FL(D399A)): 1.86 µM | Kd (MUT-7 FL): 2.33 µM | Kd (MUT-7 NTD-EXO): 18.7 µM
